The record followed here is patent US7141393 (KABUSHIKI KAISHA HAYASHIBARA SEIBUTSU KAGAKU KENKYUJO, dated 2006).

This assay concerns the target T1, IL-18R protein on the surface of L428 cell (human, UniProt Q13478 19-541).
T1 construct: whole, on cells; Endogenous receptor on cell lines; also called L428 cells; IL-18R protein on the surface of KG-1 cell
T1 sequence (looked up): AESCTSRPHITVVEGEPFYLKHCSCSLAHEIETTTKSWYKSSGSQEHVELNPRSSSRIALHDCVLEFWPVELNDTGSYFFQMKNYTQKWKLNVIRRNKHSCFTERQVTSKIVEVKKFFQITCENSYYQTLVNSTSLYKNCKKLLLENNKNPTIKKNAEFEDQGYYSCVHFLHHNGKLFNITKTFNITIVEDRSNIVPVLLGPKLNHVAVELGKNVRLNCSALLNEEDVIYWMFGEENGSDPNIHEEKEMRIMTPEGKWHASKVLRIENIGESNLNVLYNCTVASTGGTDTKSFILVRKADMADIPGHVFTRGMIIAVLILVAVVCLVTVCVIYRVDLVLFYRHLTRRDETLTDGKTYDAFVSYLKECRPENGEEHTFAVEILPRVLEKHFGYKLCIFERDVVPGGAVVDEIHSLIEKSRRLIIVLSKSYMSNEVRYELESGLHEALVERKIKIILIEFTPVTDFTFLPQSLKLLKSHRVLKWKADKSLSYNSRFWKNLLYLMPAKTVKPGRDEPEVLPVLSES
Kind of assay: inhibition of 125I-labelled IL-18 binding to L428 cells (FIG. 1 legend). As for the experimental part: Subsequently, each cell suspension was added with 200 µl mixture solution (volume ratio 1:1) of dibutylphthalate and diocthylphtalate and centrifuged at 10,000 rpm and 20° C. for 5 minutes, followed by collecting the resultant precipitates containing the cells which were then determined for radioactivity using "MODEL ARC-300", a gamma-ray counter commercialized by Aloka Co., Ltd, Tokyo, Japan.
The levels of radioactivity found in "non-specific binding section" and "whole binding section" were put in Formula 1 together with that found in the sample testing section to calculate percent inhibition.

B1: monoclonal antibody MAb #117-10C (antibody, V domains shown)
VH: EVQLQQSGAELVKPGASVKLSCTTSGFNIKDIYIYWVKQRPEQGLEWVGRIDPANGDTKYGPNFQDKATITADTSSNTAYLQLRSLTSEDTAVYYCARRGNYGAGFGYWGQGTLVTVSA
VL: DIQMTQSPASLSASVGETVTITCRASGNIHNYLAWYQQRQGKSPQILVYNAKTLADGVSSRFSGSGSGTQYSLNINSLQPEDFGTYFCQHFWSTPYTFGGGTKLEIKR
notes: Mouse hybridoma antibody purified from ascites
Turning to B1, the binding result is “binds”.
